Molecular target: paclitaxel stabilized microtubules (UniProt P02550)
Experiment: co-sedimentation; tau 0-10 μM mixed with paclitaxel stabilized microtubules (1.6 μM tubulin dimers, 20 μM paclitaxel) in 80 mM PIPES pH 7.0, 2 mM MgCl2, 0.5 mM EGTA; 30 min at room temperature; 100,000 x g for 5 min at 23°C; tau in the pellet measured by gel densitometry or western blot; noncooperative single-site fit; unphosphorylated and GSK-3β phosphorylated tau

Chain of UniProt P02550 (P02550 whole entry, looked up): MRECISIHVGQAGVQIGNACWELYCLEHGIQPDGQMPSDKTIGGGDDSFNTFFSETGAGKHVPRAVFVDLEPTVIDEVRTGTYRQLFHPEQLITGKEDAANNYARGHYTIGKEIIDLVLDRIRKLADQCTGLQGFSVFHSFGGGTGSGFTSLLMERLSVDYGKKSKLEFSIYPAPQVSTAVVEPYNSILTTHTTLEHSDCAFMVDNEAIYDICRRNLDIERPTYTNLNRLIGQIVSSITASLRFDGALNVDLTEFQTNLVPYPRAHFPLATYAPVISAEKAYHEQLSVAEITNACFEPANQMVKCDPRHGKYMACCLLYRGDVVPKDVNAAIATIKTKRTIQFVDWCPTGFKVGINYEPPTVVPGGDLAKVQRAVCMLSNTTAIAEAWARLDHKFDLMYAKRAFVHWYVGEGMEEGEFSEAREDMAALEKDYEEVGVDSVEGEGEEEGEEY

Substance	fold decrease in microtubule affinity upon GSK-3β phosphorylation, against the unphosphorylated isoform [fold]
GSK-3β phosphorylated tau isoform 1N3R (from UniProt P10636-4 1-381) (natural protein)	3
GSK-3β phosphorylated tau isoform 1N4R (from UniProt P10636-7 1-412) (natural protein)	3
